According to patent US20090228996A1, “Means and Methods for influencing Interactions Between Dc-Sign and Dc-Sign Ligands” (priority 2006, published 2009):

T1: DC-SIGN on Raji-DC-SIGN cells (Homo sapiens, UniProt Q9NNX6)
T1 construct: expressed in transfected cells; host or cells: Raji cells (Raji-DC-SIGN)
T1 sequence (Q9NNX6 1-404): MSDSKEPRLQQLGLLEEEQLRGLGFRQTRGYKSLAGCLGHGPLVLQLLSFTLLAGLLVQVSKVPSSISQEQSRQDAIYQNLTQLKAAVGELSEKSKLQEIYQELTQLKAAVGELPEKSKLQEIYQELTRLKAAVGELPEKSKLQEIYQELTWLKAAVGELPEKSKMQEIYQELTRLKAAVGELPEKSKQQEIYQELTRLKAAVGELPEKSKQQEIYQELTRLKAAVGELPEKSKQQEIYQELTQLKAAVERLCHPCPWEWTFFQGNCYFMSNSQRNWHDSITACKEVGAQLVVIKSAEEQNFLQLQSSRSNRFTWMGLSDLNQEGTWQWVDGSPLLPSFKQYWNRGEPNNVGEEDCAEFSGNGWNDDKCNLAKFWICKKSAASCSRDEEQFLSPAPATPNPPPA

T2: DC-SIGN-Fc (Homo sapiens, UniProt Q9NNX6)
T2 construct: the extracellular portion of DC-SIGN (amino acids 64 to 404)
T2 sequence (Q9NNX6 64-404): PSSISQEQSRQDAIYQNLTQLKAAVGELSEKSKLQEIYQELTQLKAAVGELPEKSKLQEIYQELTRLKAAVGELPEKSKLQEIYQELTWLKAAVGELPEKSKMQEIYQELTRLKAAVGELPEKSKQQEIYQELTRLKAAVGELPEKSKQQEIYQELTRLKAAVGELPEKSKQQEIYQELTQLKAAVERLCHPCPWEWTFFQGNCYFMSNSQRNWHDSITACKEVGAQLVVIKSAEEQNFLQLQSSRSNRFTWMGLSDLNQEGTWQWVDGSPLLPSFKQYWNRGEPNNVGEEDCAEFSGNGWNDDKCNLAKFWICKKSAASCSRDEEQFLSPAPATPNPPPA

T3: DC-SIGN on iDCs (Homo sapiens, UniProt Q9NNX6)
T3 construct: endogenous in cells
T3 sequence (Q9NNX6 1-404): T1 sequence (Q9NNX6 1-404)

T4: DC-SIGN (Homo sapiens, UniProt Q9NNX6)
T4 sequence (Q9NNX6 1-404): T1 sequence (Q9NNX6 1-404)

B1: bovine β-casein: milk protein (NIZO Food Research) (protein, UniProt P02666 16-224, looked up)
Beta-casein: RELEELNVPGEIVESLSSSEESITRINKKIEKFQSEEQQQTEDELQDKIHPFAQTQSLVYPFPGPIPNSLPQNIPPLTQTPVVVPPFLQPEVMGVSKVKEAMAPKHKEMPFPKYPVEPFTESQSLTLTDVENLHLPLPLLQSWMHQPHQPLPPTVMFPPQSVLSLSQSKVLPVPQKAVPYPQRDMPIQAFLLYQEPVLGPVRGPFPIIV
B2: human lactoferrin: major human milk protein (Sigma-Aldrich) (protein, UniProt P02788 20-710, looked up)
Lactotransferrin: GRRRSVQWCAVSQPEATKCFQWQRNMRKVRGPPVSCIKRDSPIQCIQAIAENRADAVTLDGGFIYEAGLAPYKLRPVAAEVYGTERQPRTHYYAVAVVKKGGSFQLNELQGLKSCHTGLRRTAGWNVPIGTLRPFLNWTGPPEPIEAAVARFFSASCVPGADKGQFPNLCRLCAGTGENKCAFSSQEPYFSYSGAFKCLRDGAGDVAFIRESTVFEDLSDEAERDEYELLCPDNTRKPVDKFKDCHLARVPSHAVVARSVNGKEDAIWNLLRQAQEKFGKDKSPKFQLFGSPSGQKDLLFKDSAIGFSRVPPRIDSGLYLGSGYFTAIQNLRKSEEEVAARRARVVWCAVGEQELRKCNQWSGLSEGSVTCSSASTTEDCIALVLKGEADAMSLDGGYVYTAGKCGLVPVLAENYKSQQSSDPDPNCVDRPVEGYLAVAVVRRSDTSLTWNSVKGKKSCHTAVDRTAGWNIPMGLLFNQTGSCKFDEYFSQSCAPGSDPRSNLCALCIGDEQGENKCVPNSNERYYGYTGAFRCLAENAGDVAFVKDVTVLQNTDGNNNEAWAKDLKLADFALLCLDGKRKPVTEARSCHLAMAPNHAVVSRMDKVERLKQVLLHQQAKFGRNGSDCPDKFCLFQSETKNLLFNDNTECLARLHGKTTYEKYLGPQYVAGITNLKKCSTSPLLEACEFLRK
B3: human SLPI: human milk protein SLPI (Sigma) (protein, UniProt P03973 26-132, looked up)
Antileukoproteinase: SGKSFKAGVCPPKKSAQCLRYKKPECQSDWQCPGKKRCCPDTCGIKCLDPVDTPNPTRRKPGKCPVTYGQCLMLNPPNFCEMDGQCKRDLKCCMGMCGKSCVSPVKA
B4: bovine lactoferrin: control protein previously shown to bind DC-SIGN (protein, UniProt P24627 20-708, looked up)
Lactotransferrin: APRKNVRWCTISQPEWFKCRRWQWRMKKLGAPSITCVRRAFALECIRAIAEKKADAVTLDGGMVFEAGRDPYKLRPVAAEIYGTKESPQTHYYAVAVVKKGSNFQLDQLQGRKSCHTGLGRSAGWIIPMGILRPYLSWTESLEPLQGAVAKFFSASCVPCIDRQAYPNLCQLCKGEGENQCACSSREPYFGYSGAFKCLQDGAGDVAFVKETTVFENLPEKADRDQYELLCLNNSRAPVDAFKECHLAQVPSHAVVARSVDGKEDLIWKLLSKAQEKFGKNKSRSFQLFGSPPGQRDLLFKDSALGFLRIPSKVDSALYLGSRYLTTLKNLRETAEEVKARYTRVVWCAVGPEEQKKCQQWSQQSGQNVTCATASTTDDCIVLVLKGEADALNLDGGYIYTAGKCGLVPVLAENRKSSKHSSLDCVLRPTEGYLAVAVVKKANEGLTWNSLKDKKSCHTAVDRTAGWNIPMGLIVNQTGSCAFDEFFSQSCAPGADPKSRLCALCAGDDQGLDKCVPNSKEKYYGYTGAFRCLAEDVGDVAFVKNDTVWENTNGESTADWAKNLNREDFRLLCLDGTRKPVTEAQSCHLAVAPNHAVVSRSDRAAHVKQVLLHQQALFGKNGKNCPDKFCLFKSETKNLLFNDNTECLAKLGGRPTYEEYLGTEYVTAIANLKKCSTSPLLEACAFLTR
B5: human α-lactalbumin: major human milk protein (Sigma) (protein, UniProt P00709 20-142, looked up)
Alpha-lactalbumin: KQFTKCELSQLLKDIDGYGGIALPELICTMFHTSGYDTQAIVENNESTEYGLFQISNKLWCKSSQVPQSRNICDISCDKFLDDDITDDIMCAKKILDIKGIDYWLAHKALCTEKLEQWLCEKL

Key:
[1] = target: T1, DC-SIGN on Raji-DC-SIGN cells; experiment: gp120 bead adhesion assay, Raji-DC-SIGN cells; type: cell-based; settings: major milk proteins at 1/20 dilution of physiological concentration in human milk
Description: (§1) gp120 bead adhesion assay. Beads were prepared as previously described (Geijtenbeek et al, 2000 a), in short, streptavidin was covalently coupled to Carboxylate-modified TransFluoSpheres (488/645 nm, 1.0 μm; molecular probes). The steptavidin-beads were incubated with biotinylated F(ab′)2 fragment goat-anti-human IgG (6 μg/ml; Jackson Immunoresearch) and subsequently incubated overnight with gp120-Fc chimera. Fifty thousand cells, Raji-DC-SIGN cells, immature DCs or Raji-L-SIGN cells, were pre-incubated with human milk or milk compounds, AZN-D1 (Geijtenbeek et al, 2000 a), AZN-D2 (Halary et al, 2002), EGTA or mannan for 30 minutes at RT. The ligand-coated beads (20 beads/cell) were added to the pre-incubated cells and incubated for 30 minutes at 37° C. after which the cells were washed with TSM containing 0.5% BSA. After washing, the cells were resuspended in 100 μl TSM-BSA buffer and the adhesion was measured by flow cytometry (BD Biosciences).
(§2) gp120 bead adhesion assay. Beads were prepared as previously described (Geijtenbeek et al, 2000 a), in short, streptavidin was covalently coupled to Carboxylate-modified TransFluoSpheres (488/645 nm, 1.0 μm; molecular probes). The steptavidin-beads were incubated with biotinylated F(ab′)2 fragment goat-anti-human IgG (6 μg/ml; Jackson Immunoresearch) and subsequently incubated overnight with the gp120-Fc chimera. Fifty thousand cells, Raji-DC-SIGN cells or iDCs were pre-incubated with human milk, AZN-D1 (Geijtenbeek et al, 2000 a), AZN-D2 (Halary et al, 2002), EGTA or mannan for 30 minutes at RT. The ligand-coated beads (20 beads/cell) were added to the pre-incubated cells and incubated for 30 minutes at 37° C. after which the cells were washed with TSM (20 mM Tris, 150 mM NaCl, 1 mM CaCl2, 2 mM MgCl2) containing 0.5% BSA. After washing, the cells were resuspended in 100 μl TSM-BSA buffer and the adhesion was measured by flow cytometry (BD Biosciences).

DC-SIGN-Fc = target: T2, DC-SIGN-Fc; experiment: DC-SIGN-Fc binding ELISA; settings: major milk proteins at 1/20 dilution of physiological concentration in human milk
Description: DC-SIGN-Fc binding ELISA. The DC-SIGN-Fc chimera contained the extracellular portion of DC-SIGN (amino acids 64 to 404) fused at the C-terminus to a human immunoglobulin (Ig) G1 Fc fragment and has been previously described (Geijtenbeek et al, 2002). Human milk or human milk compounds were diluted in 0.2M NaHCO3, coated on ELISA plates (maxisorb plate; Nunc) and incubated overnight at 4° C. or 2 hours at 37° C. This was followed by blocking with TSM containing 1% BSA for 30 minutes at 37° C. before addition of soluble DC-SIGN-Fc (5 μg/ml) for 2 hours at RT, the binding was determined by incubation of a peroxidase labeled anti-IgG1 antibody for 30 minutes at RT. DC-SIGN-Fc binding specificity was determined by pre-incubation of the DC-SIGN-FC with either 50 μg/ml DC-SIGN specific mouse antibody AZN-D1 (Geijtenbeek et al, 2000 a) or 10 mM EGTA. Single-cycle-replication transmission assay. The assay was performed as previously described (Groot et al, 2005). In short mDCs and iDCs were incubated in a 96-well-plate (35−50×10^3 DC/well) with human milk for 30 minutes at 37° C. before addition of the virus (5 ng p24/well), which was incubated for 2 hours at 37° C. The DCs were washed twice with PBS before addition of 50×10^3 LuSIV cells. After 24 hours, LuSIV cells were harvested and resuspended in 50 μl lysis buffer (25 mM Tris-Cl 7.8, 2 mM DTT, 2 mM CDTA, 10% glycerol, 1% Triton X100). The cells were then incubated for 45 minutes at room temperature while shaking, followed by 10 minutes centrifugation at 3200×g. The supernatant was transferred to a white-solid 96 well plate (Corning Costar), and 150 μl of lucibuffer (100 μg/ml BSA, 6.6 mM ATP, 15 mM MgSO4, 25 mM glycylglycine) was added. 100 μl of DE(−)Luciferin (Roche Diagnostics GmbH) was injected per well (0.28 mg/ml lucibuffer excluding ATP). 50×10^3 LuSIV cells grown without DC or HIV-1 were used to obtain the background luciferase value.
DC-SIGN-Fc binding ELISA. The DC-SIGN-Fc chimera contained the extracellular portion of DC-SIGN (amino acids 64 to 404) fused at the C-terminus to a human immunoglobulin (Ig) G1 Fc fragment which has been previously described (Geijtenbeek et al, 2002). Human milk or BSSL were diluted in 0.2 M NaHCO3, coated on ELISA plates (maxisorb plate; Nunc) and incubated overnight at 4° C. or 2 hours at 37° C. This was followed by blocking with TSM containing 1% BSA for 30 minutes at 37° C. before addition of soluble DC-SIGN-Fc (5 μg/ml) for 2 hours at RT, the binding was determined by incubation of a peroxidase labeled anti-IgG1 antibody for 30 minutes at RT. DC-SIGN-Fc binding specificity was determined by pre-incubation of the DC-SIGN-Fc with either 50 μg/ml DC-SIGN specific mouse antibody AZN-D1 (Geijtenbeek et al, 2000 a) or 10 mM EGTA.

DC-SIGN on iDCs = target: T3, DC-SIGN on iDCs; experiment: gp120 bead adhesion assay, immature DCs; type: cell-based; settings: major milk proteins at 1/20 dilution of physiological concentration in human milk
Description: as §1, §2

DC-SIGN = target: T4, DC-SIGN; settings: literature; cited from earlier work

Molecule | gp120 binding to Raji-DC-SIGN [1] | DC-SIGN-Fc binding to coated milk compound (DC-SIGN-Fc) | gp120 binding to iDCs (DC-SIGN on iDCs) | previously shown DC-SIGN binding (DC-SIGN)
B1 | None of the tested human milk compounds could inhibit gp120 binding | showed no binding | None of the tested human milk compounds could inhibit gp120 binding | –
B2 | None of the tested human milk compounds could inhibit gp120 binding | showed no binding | None of the tested human milk compounds could inhibit gp120 binding | –
B3 | None of the tested human milk compounds could inhibit gp120 binding | showed no binding | None of the tested human milk compounds could inhibit gp120 binding | –
B4 | – | – | – | bind DC-SIGN and prevent viral transfer
B5 | None of the tested human milk compounds could inhibit gp120 binding | showed no binding | None of the tested human milk compounds could inhibit gp120 binding | –
